These results are taken from patent US6548643.

Assay in all cases: cell-based or functional assay
The target in test [1] is H-2L^d class I molecule on P815 cells (mouse) (UniProt P01897).
Test [2] addresses H-2K^b class I molecule on RMA cells (mouse) (UniProt P01901).
In test [3] the target is H-2D^b class I molecule on RMA cells (mouse) (UniProt P01899).
For test [4], the target named is T1, H-2D^d class I molecule on P815 cells (mouse) (UniProt P01900).
T1 sequence (MHC heavy, looked up): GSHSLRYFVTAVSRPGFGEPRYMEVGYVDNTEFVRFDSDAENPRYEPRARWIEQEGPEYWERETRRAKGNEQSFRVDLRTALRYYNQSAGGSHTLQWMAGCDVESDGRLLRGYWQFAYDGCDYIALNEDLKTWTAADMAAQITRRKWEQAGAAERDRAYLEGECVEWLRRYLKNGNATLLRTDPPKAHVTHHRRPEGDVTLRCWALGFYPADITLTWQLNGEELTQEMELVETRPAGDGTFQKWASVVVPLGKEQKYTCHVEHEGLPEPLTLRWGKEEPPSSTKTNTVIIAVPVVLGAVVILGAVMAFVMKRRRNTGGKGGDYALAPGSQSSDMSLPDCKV

Test [5] concerns the target H-2K^d class I molecule on P815 cells (mouse) (UniProt P01902).
UniProt P01902, sequence (P01902 22-368): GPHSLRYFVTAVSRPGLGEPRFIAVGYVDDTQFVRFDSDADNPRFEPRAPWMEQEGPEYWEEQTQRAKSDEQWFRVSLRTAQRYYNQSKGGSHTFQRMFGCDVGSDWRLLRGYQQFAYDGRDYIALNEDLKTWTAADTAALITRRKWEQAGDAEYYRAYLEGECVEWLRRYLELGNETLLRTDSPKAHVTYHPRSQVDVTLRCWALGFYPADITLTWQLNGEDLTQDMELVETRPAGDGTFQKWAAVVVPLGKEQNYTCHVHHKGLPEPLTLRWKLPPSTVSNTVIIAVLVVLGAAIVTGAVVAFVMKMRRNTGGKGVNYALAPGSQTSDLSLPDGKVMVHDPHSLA

UniProt P01897, sequence (P01897 25-362): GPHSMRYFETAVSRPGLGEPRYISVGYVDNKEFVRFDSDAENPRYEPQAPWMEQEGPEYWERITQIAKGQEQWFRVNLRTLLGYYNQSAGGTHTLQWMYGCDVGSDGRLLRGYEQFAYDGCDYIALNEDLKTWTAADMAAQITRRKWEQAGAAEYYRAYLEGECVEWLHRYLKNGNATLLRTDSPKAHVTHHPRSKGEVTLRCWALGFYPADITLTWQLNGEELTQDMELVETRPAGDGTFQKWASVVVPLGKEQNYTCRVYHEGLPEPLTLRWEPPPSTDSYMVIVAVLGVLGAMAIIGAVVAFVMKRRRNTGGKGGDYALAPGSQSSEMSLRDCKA
UniProt P01901, sequence (P01901 22-369): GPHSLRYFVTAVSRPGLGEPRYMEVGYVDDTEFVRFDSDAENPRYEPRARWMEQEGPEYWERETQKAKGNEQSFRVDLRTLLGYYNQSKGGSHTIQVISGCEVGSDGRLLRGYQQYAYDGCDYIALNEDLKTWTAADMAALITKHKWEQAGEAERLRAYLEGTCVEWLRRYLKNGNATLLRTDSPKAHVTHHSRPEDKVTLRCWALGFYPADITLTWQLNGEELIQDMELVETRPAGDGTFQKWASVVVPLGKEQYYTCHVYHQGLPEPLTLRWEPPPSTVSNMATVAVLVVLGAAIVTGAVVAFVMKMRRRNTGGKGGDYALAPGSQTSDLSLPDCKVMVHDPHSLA
UniProt P01899, sequence (P01899 25-362): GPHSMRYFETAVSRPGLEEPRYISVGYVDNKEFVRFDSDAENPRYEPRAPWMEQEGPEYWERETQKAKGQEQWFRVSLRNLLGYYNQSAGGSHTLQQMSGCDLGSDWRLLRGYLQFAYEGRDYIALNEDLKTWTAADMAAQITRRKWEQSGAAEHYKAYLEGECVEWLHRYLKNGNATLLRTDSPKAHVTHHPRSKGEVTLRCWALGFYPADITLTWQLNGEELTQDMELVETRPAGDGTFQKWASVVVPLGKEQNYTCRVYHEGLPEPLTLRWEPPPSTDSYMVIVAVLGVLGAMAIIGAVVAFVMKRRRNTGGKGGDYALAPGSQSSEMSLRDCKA

VPSSTEKNA: the % lysis of peptide-pulsed P815 target cells by mannan-HMFG CTL, E:T 50:1 in test [1] came to 78%. Regarding CRRKNYGQL, in test [2], the % lysis of peptide-pulsed RMA target cells by mannan-HMFG CTL, E:T 50:1 was found to be 20% and the % lysis of peptide-pulsed RMA target cells by mannan-HMFG CTL, E:T 100:1 amounted to 42%. In test [3], the % lysis of peptide-pulsed RMA target cells by mannan-HMFG CTL, E:T 50:1 came to 20% and the % lysis of peptide-pulsed RMA target cells by mannan-HMFG CTL, E:T 100:1 is 42%. For the molecule SVPSSTEKN, the % lysis of peptide-pulsed P815 target cells by mannan-HMFG CTL, E:T 50:1 in test [4] was determined as 0%. Consider SAPDNRPAL, for which the % lysis of peptide-pulsed RMA target cells by mannan-HMFG CTL, E:T 50:1 in test [3] is 50%.

Turning to AVSMTSSVL, in test [5], the % lysis of peptide-pulsed P815 target cells by mannan-HMFG CTL, E:T 50:1 was determined as 77%. Further, in test [2], the % lysis of peptide-pulsed RMA target cells by mannan-HMFG CTL, E:T 50:1 was 18% and the % lysis of peptide-pulsed RMA target cells by mannan-HMFG CTL, E:T 100:1 turned out to be 40%. In test [3], this molecule came in with a % lysis of peptide-pulsed RMA target cells by mannan-HMFG CTL, E:T 50:1 of 18% and a % lysis of peptide-pulsed RMA target cells by mannan-HMFG CTL, E:T 100:1 of 40%. Regarding YYQELQRDI, the % lysis of peptide-pulsed P815 target cells by mannan-HMFG CTL, E:T 50:1 in test [5] is 50%. APGSTAPPA: the % lysis of peptide-pulsed RMA target cells by mannan-HMFG CTL in test [3] came out at 70%. Regarding SAPDTRPAP, in test [2], the % lysis of peptide-pulsed RMA target cells by mannan-HMFG CTL was determined as 80%. Moreover, the % lysis of peptide-pulsed P815 target cells by mannan-HMFG CTL, E:T 50:1 in test [4] was determined as 62%. As for NYGQLDIFP, in test [5], the % lysis of peptide-pulsed P815 target cells by CTL of mannan-HMFG immunised BALB/c mice (51Cr release) came to 0%. As for APDTRPAPG, the % lysis of peptide-pulsed P815 target cells by mannan-HMFG CTL, E:T 50:1 in test [1] turned out to be 50%.

YGQLDIFPA came in with a % lysis of peptide-pulsed P815 target cells by CTL of mannan-HMFG immunised BALB/c mice (51Cr release) in test [4] of 0%. The molecule KNYGQLDIF came in with a % lysis of peptide-pulsed P815 target cells by CTL of mannan-HMFG immunised BALB/c mice (51Cr release) in test [1] of 0%.
